From article PMC3945839 (Protein Science : A Publication of the Protein Society, 2014) come the findings set out here.

What all share (experiment): BLI
On the technique in general: Biolayer interferometry detects binding as a change in optical thickness at a sensor tip.

In test [1] the target is N-terminal leucine peptide (X-GMMSC, X = leucine).
Test [2] concerns the target N-terminal methionine peptide (X-GMMSC, X = methionine).
Test [3] concerns the target T1, Methionine aminopeptidase from E. coli (E. coli, UniProt P0AE18 1-264).
T1 sequence: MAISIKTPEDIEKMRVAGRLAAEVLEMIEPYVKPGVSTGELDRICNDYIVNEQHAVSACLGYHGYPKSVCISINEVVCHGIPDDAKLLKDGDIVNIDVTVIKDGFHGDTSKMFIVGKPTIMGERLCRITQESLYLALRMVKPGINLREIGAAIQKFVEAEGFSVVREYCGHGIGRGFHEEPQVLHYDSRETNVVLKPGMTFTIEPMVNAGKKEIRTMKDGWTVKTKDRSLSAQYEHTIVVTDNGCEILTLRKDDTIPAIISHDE

Where no end group is shown, it is not given here. The star is where a group is joined. BMPH = NNC(=O)CCN1C(=O)CC(*)C1=O

For orientation: Kd means a measure of binding affinity in units of concentration. The low end stands for higher affinity, the high end for lower affinity. One may read the koff as the rate constant with which the complex falls apart. The low end stands for a long-lived complex, the high end for a short-lived complex. As a reminder, the kon is the rate constant with which the complex forms. The low end stands for slow association, the high end for fast association. In test [1], “eLAP, designed leucine aminopeptidase derived from E. coli methionine aminopeptidase (from UniProt P0AE18 4-264) (enzyme)” registered a Kd of 0.826 µM, a dissociation rate constant (koff) of 0.00142 s⁻¹ and an on-rate (kon) of 1720 M⁻¹ s⁻¹. Further, in test [2], the Kd was 19.1 µM, the koff was 0.00408 s⁻¹ and the kon came to 214 M⁻¹ s⁻¹.

B1: N-terminal methionine peptide (X-GMMSC, X = methionine) (peptide)
peptide: MGMMSC(BMPH)
In test [3], B1 showed a Kd of 2.65 µM, a koff of 0.00489 s⁻¹ and an association rate constant (kon) of 1850 M⁻¹ s⁻¹.

B2: N-terminal leucine peptide (X-GMMSC, X = leucine) (peptide)
peptide: LGMMSC(BMPH)
For the molecule B2, in test [3], the affinity, expressed as Kd, was 54.2 µM; the dissociation rate constant (koff) was 0.0147 s⁻¹; the on-rate (kon) was 271 M⁻¹ s⁻¹.
